± gives the uncertainty stated by the source.

This series in a line: protein stability index of a GFP-peptide fusion (yeast GPS) (PSI 1-4); higher = more stable; sorted into four equal gates, so the index is relative within each strain. The essentials:
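Peptides tiling yeast proteins in 17-residue segments were fused downstream of GFP, with Cherry expressed from the same plasmid. As a pooled library in yeast, mid-log cultures grown in leucine-free medium were sorted into four equal gates by GFP/Cherry fluorescence ratio. Gate plasmids were PCR-amplified and Illumina-sequenced, and barcodes linked reads to strains. Each peptide received a protein stability index equal to the sum of each gate's read frequency times its gate number.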

As to DYLNAELGEFFVNGVAT [FAS2], the protein stability index (doa10∆) stood at 3.09 ± 0.093, the protein stability index (pdr5∆) was determined as 2.79 ± 0.24, the protein stability index (san1∆) stood at 3.06 ± 0.12 and the protein stability index (ubr1∆) was found to be 3.35 ± 0.08.
Consider LHCCIQLLMGDIPELSF [RPN3], for which the protein stability index turned out to be 1.71 ± 0.048 (doa10∆), 1.73 ± 0.052 (pdr5∆), 1.78 ± 0.065 (san1∆) and 1.71 ± 0.042 (ubr1∆).
EVFEFKTFNKIQSQVFE [BRR2] returned a protein stability index (pdr5∆) of 3.29 ± 0.19 and a protein stability index (ubr1∆) of 3.08 ± 0.22.
Regarding FVAATTNAGYTIELAGG [FAS1], the protein stability index is 2.82 ± 0.063 (doa10∆), 2.97 ± 0.059 (pdr5∆), 2.9 ± 0.11 (san1∆) and 2.68 ± 0.062 (ubr1∆).
DDSANIVNVNFMKSVIR [DIS3]: the protein stability index by setting is: (doa10∆) 2.92 ± 0.051; (pdr5∆) 3.1 ± 0.06; (san1∆) 3.06 ± 0.069; (ubr1∆) 3.03 ± 0.044.
In turn, FVCLSCSHIFTSDQKNK [RPB9] gave a protein stability index (doa10∆) of 2.43 ± 0.082, a protein stability index (pdr5∆) of 2.28 ± 0.093, a protein stability index (san1∆) of 2.04 ± 0.11 and a protein stability index (ubr1∆) of 2.55 ± 0.066.
On the same counts, the results for HFAWLPTHIWNAKRSHM [POP1] are 1.99 ± 0.033, 1.67 ± 0.035, 1.45 ± 0.059 and 1.5 ± 0.026.
As to HEVQYQESSSTLSTHST [SIN4], the protein stability index reads like this: (doa10∆) 2.68 ± 0.037; (pdr5∆) 2.78 ± 0.036; (san1∆) 2.87 ± 0.041; (ubr1∆) 2.83 ± 0.032.
On to IHGELKTYKEGINKNEE [SMC1], for which the protein stability index reads like this: (doa10∆) 2.94 ± 0.075; (pdr5∆) 3.09 ± 0.051; (san1∆) 2.87 ± 0.055; (ubr1∆) 3.01 ± 0.046.
For ITKLNKEIRAFDKLLNI [SRB4] the same measures were 3.41 ± 0.098, 3.44 ± 0.088, 3.36 ± 0.077 and 3.15 ± 0.12.
On the same counts, the results for NRLEKEQSVKTQNSRHY [LIN1] are 2.44 ± 0.13, 2.85 ± 0.12, 2.52 ± 0.13 and 2.49 ± 0.096.
For VRIPPDQFHRDTISAIT [RPC25] the same measures were 1.91 ± 0.042, 2.43 ± 0.048, 2.02 ± 0.064 and 1.8 ± 0.032.
Take EVKLKASLKKMEETEQK [SMC3]: the protein stability index (pdr5∆) was found to be 3.16 ± 0.15, the protein stability index (san1∆) came to 3.2 ± 0.17 and the protein stability index (ubr1∆) was found to be 3.53 ± 0.25.
Turning to NVEKPSSKPAFNLISNA [YLR335W/NUP2], the protein stability index by setting is: (doa10∆) 3.1 ± 0.056; (pdr5∆) 3.15 ± 0.066; (san1∆) 3.14 ± 0.048; (ubr1∆) 3.16 ± 0.044.
Regarding FNTNSSFTPSTVPNINF [YOR098C/NUP1], the protein stability index was 2.48 ± 0.04 (doa10∆), 2.42 ± 0.032 (pdr5∆), 2.54 ± 0.04 (san1∆) and 2.77 ± 0.029 (ubr1∆).
For FEEWIKMATDNKINSRN [BRN1] the same measures were 3.27 ± 0.13, 3.17 ± 0.096, 3.27 ± 0.11 and 3.7 ± 0.14.
As to DDETPSCEVEEIGLLGG [SNU114], the protein stability index stood at 3.13 ± 0.11 (doa10∆), 3.35 ± 0.084 (pdr5∆), 3.26 ± 0.07 (san1∆) and 3.14 ± 0.065 (ubr1∆).
For LVSSASQQLLEILVTEL [RPN2] the same measures were 1.93 ± 0.059, 2.27 ± 0.058, 2.16 ± 0.092 and 1.8 ± 0.051.
Regarding SKTVVTLSEPVQGELKP [FAS1], the protein stability index is 2.56 ± 0.05 (doa10∆), 2.73 ± 0.052 (pdr5∆), 2.5 ± 0.053 (san1∆) and 2.18 ± 0.033 (ubr1∆).
On the same counts, the results for KLISAFDDLEVEELPTF [RRP42] are 2.57 ± 0.06, 2.84 ± 0.05, 2.5 ± 0.066 and 2.85 ± 0.036.
On the same counts, the results for TLPEKKQFDSIFNSNKA [SIR4] are 2.71 ± 0.042, 2.77 ± 0.045, 2.82 ± 0.034 and 2.8 ± 0.035.
On the same counts, the results for DEKNKNNNEDNENNNNS [MED2] are 3.11 ± 0.084, 3.39 ± 0.069, 3.17 ± 0.062 and 3.28 ± 0.064.
As to LRNYLTPNVREEKQKSY [PUP1], the protein stability index (doa10∆) was 3.41 ± 0.21, the protein stability index (pdr5∆) was 2.88 ± 0.15, the protein stability index (san1∆) stood at 3.39 ± 0.085 and the protein stability index (ubr1∆) is 3.27 ± 0.16.
For AESMCQELELPGEFVTA [SNF5] the same measures were 2.4 ± 0.061, 2.53 ± 0.057, 2.62 ± 0.048 and 2.46 ± 0.081.
With IRFRIEREVFVDVKPKS [RPC25], the protein stability index reads like this: (doa10∆) 2.13 ± 0.12; (pdr5∆) 2.66 ± 0.16; (san1∆) 2.16 ± 0.13; (ubr1∆) 2.12 ± 0.25.
On to QFTGFLLHEMTQTYMQM [GRR1], for which the protein stability index is, setting by setting: (doa10∆) 1.92 ± 0.054; (pdr5∆) 2.08 ± 0.036; (san1∆) 2.2 ± 0.051; (ubr1∆) 1.9 ± 0.041.

(Values after the supplement of paper PMC9732359.)
